According to PMC5117854, “Functional asymmetry and electron flow in the bovine respirasome” (eLife, 2016):

T1: subunit 1 of complex III (bovine (endogenous in heart …, UniProt P31800 35-480))
T1 construct: complex III subunit 1, bovine heart; stood in the assay as a subunit of the complex III dimer within the respirasome; also called subunit 1 of the bc1 complex; source: endogenous, bovine heart mitochondria; part of the supercomplex I1III2IV1 purified in amphipol A8-35
T1 sequence (looked up): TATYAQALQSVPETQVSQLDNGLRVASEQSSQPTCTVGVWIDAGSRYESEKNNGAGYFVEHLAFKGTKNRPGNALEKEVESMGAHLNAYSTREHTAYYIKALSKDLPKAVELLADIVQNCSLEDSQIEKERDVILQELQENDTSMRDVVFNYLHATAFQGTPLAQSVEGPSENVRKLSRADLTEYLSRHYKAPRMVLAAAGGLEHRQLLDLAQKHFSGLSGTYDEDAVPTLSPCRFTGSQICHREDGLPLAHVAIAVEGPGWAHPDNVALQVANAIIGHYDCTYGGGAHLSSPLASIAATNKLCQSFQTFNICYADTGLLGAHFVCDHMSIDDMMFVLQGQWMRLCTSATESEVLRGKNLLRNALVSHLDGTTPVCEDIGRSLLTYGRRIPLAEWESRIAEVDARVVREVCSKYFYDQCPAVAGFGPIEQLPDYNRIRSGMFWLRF


Legend:
[1] = target: T1, subunit 1 of complex III; assay: cryo-EM structure; class 1 map of supercomplex I1III2IV1 (17,094 particles, 9.1 Å; transmembrane region 8.6 Å); native supercomplex co-purified from bovine heart mitochondria (PCC-a-M, then amphipol A8-35, density gradient); atomic models of complexes I, III and IV docked; conditions: both partners purified
[2] = target: T2, subunit ND5 of complex I (bovine (endogenous in heart …, UniProt P03920 1-606)); assay: as above; conditions: both partners purified
T2 construct: complex I core subunit ND5, bovine heart; stood in the assay as a subunit of complex I within the respirasome; source: endogenous, bovine heart mitochondria; part of the supercomplex I1III2IV1 purified in amphipol A8-35
T2 sequence (P03920 whole entry, one chain of several): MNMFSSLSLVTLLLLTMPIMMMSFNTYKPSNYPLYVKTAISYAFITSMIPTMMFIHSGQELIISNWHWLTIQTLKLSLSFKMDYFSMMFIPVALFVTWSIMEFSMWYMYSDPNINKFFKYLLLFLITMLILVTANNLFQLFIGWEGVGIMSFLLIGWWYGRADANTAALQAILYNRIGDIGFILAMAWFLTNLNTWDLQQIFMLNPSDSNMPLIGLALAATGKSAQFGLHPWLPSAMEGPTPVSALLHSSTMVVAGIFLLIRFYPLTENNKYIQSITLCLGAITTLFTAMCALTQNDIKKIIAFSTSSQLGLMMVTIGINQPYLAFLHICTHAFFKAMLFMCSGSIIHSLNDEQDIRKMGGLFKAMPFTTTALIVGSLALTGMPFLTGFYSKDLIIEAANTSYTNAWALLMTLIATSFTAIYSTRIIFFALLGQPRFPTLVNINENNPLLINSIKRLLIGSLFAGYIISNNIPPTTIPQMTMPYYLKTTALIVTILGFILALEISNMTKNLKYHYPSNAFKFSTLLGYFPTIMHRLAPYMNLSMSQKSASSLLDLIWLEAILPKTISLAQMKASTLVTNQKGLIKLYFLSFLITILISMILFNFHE

Row | binding result [1] | Binder | binding result [2]
1 | binds | COX7A1 of cytochrome c oxidase (complex IV) (natural protein, UniProt P07470 22-80, looked up, complex IV subunit COX7A1, bovine heart; stood in the assay as a subunit of complex IV within the respirasome; source: endogenous, bovine heart mitochondria; part of the supercomplex I1III2IV1 purified in amphipol A8-35) FENRVAEKQKLFQEDNGLPVHLKGGATDNILYRVTMTLCLGGTLYSLYCLGWASFPHKK | 
2 |  | SHYEEGPGKNIPFSVENKWRLLAMMTLFFGSGFAAPFFIVRHQLLKK (natural protein, UniProt P00430 17-63, looked up, complex IV subunit COX7C, bovine heart; stood in the assay as a subunit of complex IV within the respirasome; source: endogenous, bovine heart mitochondria; part of the supercomplex I1III2IV1 purified in amphipol A8-35) [complex IV subunit COX7C] | binds
